What was measured:
MS2 coat protein [1] = test: apparent KD of MS2 coat protein, switch OFF state (with FMN for OFF switches, without FMN for ON switches); designed switch direction (-1 OFF switch, 1 ON switch): -1; higher = weaker reporter binding; conditions: FMN input: 0 or 200 uM; Eterna round: R93 (includes R88 designs)
In short: (§1)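 The designed RNA switches were transcribed on-chip from Illumina sequencing clusters. In 100 mM Tris-HCl pH 7.5, 80 mM KCl and 4 mM MgCl2, without or with constant ligand, they were titrated with SNAP-549-labelled MS2 coat protein from 0.7 or 1.5 nM to 3 µM in twofold steps. Apparent KD is the per-design median of normalised cluster binding-curve fits.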

MS2 coat protein [2] = test: apparent KD of MS2 coat protein, switch ON state; designed switch direction (-1 OFF switch, 1 ON switch): -1; higher = weaker reporter binding; conditions: FMN input: 0 or 200 uM; Eterna round: R93 (includes R88 designs)
In short: as §1

MS2 coat protein [3] = test: apparent KD of MS2 coat protein; designed switch direction (-1 OFF switch, 1 ON switch): 1; higher = weaker reporter binding
In short: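 For each design, the apparent KD is the median over clusters of curves fitted to normalised cluster fluorescence. Clusters held RNA switches with common flanks, transcribed on Illumina chips by stalled E. coli RNA polymerase. These were titrated with SNAP-549-labelled MS2 coat protein, doubling from 0.7 or 1.5 nM to 3 µM, without input, with 200 uM small-molecule ligand, or with an oligonucleotide input.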

[4] = input ligand: microRNA oligo, concentration not stated
[5] = Eterna round: R95, input ligand: microRNA oligo, concentration not stated

Sequence: AAAAAACAUGAGGAUCACCCAUGUAAGGAUAUCGGAAAAGGAAAAAAAAAAAAGAAGACGAGAAGGUACACCAA
- apparent KD of MS2 coat protein (MS2 coat protein [1]): 31.5 nM
- apparent KD of MS2 coat protein (MS2 coat protein [2]): 25.9 nM

Sequence: AAAAAACAUGAGGAUCACCCAUGUAAGGAUAUCUAAAAUAAAAGAAAAAUAAAGAAAAGGAGAAGGUACAAGGA [JL wbt mod 25]
- apparent KD of MS2 coat protein (MS2 coat protein [1]): 32.6 nM
- apparent KD of MS2 coat protein (MS2 coat protein [2]): 13.8 nM

Sequence: AAAAAACAUGAGGAUCACCCAUGUAAGGAUAUGCUAAAAAAAAAAAAAAAAAAAAAAUGCAGAAGGUACAAAAA [water's exclusion 1 again]
- apparent KD of MS2 coat protein (MS2 coat protein [1]): 40.2 nM
- apparent KD of MS2 coat protein (MS2 coat protein [2]): 40.4 nM

Sequence: ACAGCUGAAGGAUAUACUUGGAAAAAAAAAAAAAAAAAAAAACAUGAGGAUCACCCAUGUAGAAGGUCAGCUGA [Brourd - Exclusion 2 - Sub 2]
- apparent KD of MS2 coat protein (MS2 coat protein [2]): 50.3 nM

Sequence: UUAAUUAUGUAAGGAUAUACAUGAGGAUUUCUCGUAGAAGGUACAUUACAUGAGGAUCACCCAUGUGGGUGUCCGUAGACGCCA [JL SSNG1 1.06] (Eterna round: R96, puzzle: Same State NG 1)
- apparent KD of MS2 coat protein (MS2 coat protein [3]; [4]): 475 nM

Sequence: UUAAUUUACUGAGGAUAUCGUGUCGUCUGAUUUGACAUGAGGAUCACCCAUGUGUGAAGUGGUAUCGAGAAGGCAGUUUUCUUA [JR_SSNG2_Sub027] (Eterna round: R96, puzzle: Same State NG 2)
- apparent KD of MS2 coat protein (MS2 coat protein [3]; input ligand: FMN 200 uM): 24.2 nM
- apparent KD of MS2 coat protein (MS2 coat protein [3]; [4]): 42.6 nM
- apparent KD of MS2 coat protein (MS2 coat protein [3]; input ligand: none): 75.5 nM

Sequence: UUAGAAUUGCAAGGAUAUCUAAUUUAGAUAGUAAGAGAAGGUGCUUGAUAGUUACAUGAGGAUCACCCAUGUUUUUGGGUUUAU [JR_SSNG1_Sub058] (Eterna round: R96, puzzle: Same State NG 1)
- apparent KD of MS2 coat protein (MS2 coat protein [3]; [4]): 416 nM

Sequence: UUAGCGACGGAAGGAUAUUGGACGCUAACAUGAGGAUCACCCAUGUAGAGGUCCUACCAACAGCGCAAGAAGGUCCGAUCAGCA [Eternabot solution 13] (Eterna round: R96, puzzle: Same State NG 2)
- apparent KD of MS2 coat protein (MS2 coat protein [3]; input ligand: FMN 200 uM): 22.7 nM
- apparent KD of MS2 coat protein (MS2 coat protein [3]; [4]): 8.94 nM
- apparent KD of MS2 coat protein (MS2 coat protein [3]; input ligand: none): 13.3 nM

Sequence: UUAUACUCGAGAGGAUAUGCAGAGGAUCACCCUGCAGAAGGCUCGUUAGAGAGGAUAUGCAGAGGAUCACCCUGCAGAAGGCUC [pwkr ssNG DX.24] (Eterna round: R96, puzzle: Same State NG 1)
- apparent KD of MS2 coat protein (MS2 coat protein [3]; input ligand: FMN 200 uM): 45.7 nM
- apparent KD of MS2 coat protein (MS2 coat protein [3]; [4]): 16.1 nM
- apparent KD of MS2 coat protein (MS2 coat protein [3]; input ligand: none): 37.4 nM

Sequence: UUAUCUCAGACAUGAGGAUCACCCAUGUGGUUUUGACUUAGACAGGAUAUAGUAGUAUCGAAAUACUAGAAGGGUCAUUUUAUU [JR_SSNG3_Sub022] (Eterna round: R96, puzzle: Same State NG 3)
- apparent KD of MS2 coat protein (MS2 coat protein [3]; input ligand: FMN 200 uM): 91.3 nM
- apparent KD of MS2 coat protein (MS2 coat protein [3]; [4]): 99.5 nM
- apparent KD of MS2 coat protein (MS2 coat protein [3]; input ligand: none): 125 nM

Sequence: UUAUCUCUUACAUGAGGAUCACCCAUGUUUUUAUGUCUUAGACAGGAUAUAGUAGUCUCGUAUUACUAGAAGGGUCUUUUUAUU [JR_SSNG3_Sub020] (Eterna round: R96, puzzle: Same State NG 3)
- apparent KD of MS2 coat protein (MS2 coat protein [3]; input ligand: FMN 200 uM): 18.7 nM
- apparent KD of MS2 coat protein (MS2 coat protein [3]; [4]): 22.4 nM
- apparent KD of MS2 coat protein (MS2 coat protein [3]; input ligand: none): 26.4 nM

Sequence: UUAUUAUUUACAUGAGGAUCACCCAUGUUUUUAUGUCAGAGACAGGAUAUAGAAGUCUCGUUUUACUAGAAGGGUCUUUUUAUU [JR_SSNG3_Sub016] (Eterna round: R96, puzzle: Same State NG 3)
- apparent KD of MS2 coat protein (MS2 coat protein [3]; input ligand: FMN 200 uM): 22 nM
- apparent KD of MS2 coat protein (MS2 coat protein [3]; [4]): 17.1 nM
- apparent KD of MS2 coat protein (MS2 coat protein [3]; input ligand: none): 22 nM

Sequence: UUCUCAUUUACAUGAGGAUCACCCAUGUUUUUUUGUCAGAGAUAGGAUAUAGUUCUCUCGUUUUUCUAGAAGGAUCUUUUUAUU [JR_SSNG3_Sub087] (Eterna round: R96, puzzle: Same State NG 3)
- apparent KD of MS2 coat protein (MS2 coat protein [3]; input ligand: FMN 200 uM): 79.7 nM
- apparent KD of MS2 coat protein (MS2 coat protein [3]; [4]): 53.2 nM
- apparent KD of MS2 coat protein (MS2 coat protein [3]; input ligand: none): 71.7 nM

Sequence: UUCUCAUUUACAUGAGGAUCACCCAUGUUUUUUUGUCGGAAAUAGGAUAUAGGUCUCUCGUUUUACUAGAAGGAUUUCCUUAUU [JR_SSNG3_Sub089] (Eterna round: R96, puzzle: Same State NG 3)
- apparent KD of MS2 coat protein (MS2 coat protein [3]; input ligand: FMN 200 uM): 70.4 nM
- apparent KD of MS2 coat protein (MS2 coat protein [3]; [4]): 70.7 nM
- apparent KD of MS2 coat protein (MS2 coat protein [3]; input ligand: none): 58.9 nM

Sequence: UUCUCCUUUUUUUACAUGAGGAUCACCCAUGUUUUUCUUACGUAGGAUAUCGUUGUUUUUUUUUACGAGAAGGACGUAGUAAGU [JR_SSND3_Sub060] (Eterna round: R96, puzzle: Same State NG 3)
- apparent KD of MS2 coat protein (MS2 coat protein [3]; input ligand: FMN 200 uM): 31.5 nM
- apparent KD of MS2 coat protein (MS2 coat protein [3]; [4]): 25.8 nM
- apparent KD of MS2 coat protein (MS2 coat protein [3]; input ligand: none): 36.2 nM

Sequence: UUCUGAUAGCGAGGAUAUCGCGAGGAUCACCCGUGAGAAGGCGCAGAGCCGAGGAUCACCCGGCUGAUCCUGAGAAGGAGGUCA (Eterna round: R96, puzzle: Same State NG 1)
- apparent KD of MS2 coat protein (MS2 coat protein [3]; input ligand: FMN 200 uM): 136 nM
- apparent KD of MS2 coat protein (MS2 coat protein [3]; [4]): 333 nM
- apparent KD of MS2 coat protein (MS2 coat protein [3]; input ligand: none): 530 nM

Sequence: UUGAAGAAUUAAGGAUAUCGAGUCGUCAGAUUUUACAUGAGGAUCACCCAUGUGGGUUGCGGUAUCGAGAAGGUAAAUUACAAG [JL JR Sub099 mod 6] (Eterna round: R96, puzzle: Same State NG 2)
- apparent KD of MS2 coat protein (MS2 coat protein [3]; input ligand: FMN 200 uM): 24.4 nM
- apparent KD of MS2 coat protein (MS2 coat protein [3]; [4]): 34.1 nM
- apparent KD of MS2 coat protein (MS2 coat protein [3]; input ligand: none): 43.3 nM

Sequence: UUGAAGAAUUAAGGAUAUUGAAUACAUAUGUUUAACAUGAGGAUCACCCAUGUGGGUUGCGGUAUCGAGAAGGUAAAUUACUAA [Mat - Same State NG 2 - JL mod - D1] (Eterna round: R96, puzzle: Same State NG 2)
- apparent KD of MS2 coat protein (MS2 coat protein [3]; input ligand: FMN 200 uM): 140 nM
- apparent KD of MS2 coat protein (MS2 coat protein [3]; [4]): 80.5 nM
- apparent KD of MS2 coat protein (MS2 coat protein [3]; input ligand: none): 112 nM

Sequence: UUGAAGAAUUAAGGAUAUUGAGUACAUAUGUUAAACAUGAGGAUCACCCAUGUGGGUUGCGGUAUCGAGAAGGUAAAUUACUAG [Mat - same State NG 2 - JL mod - D68] (Eterna round: R96, puzzle: Same State NG 2)
- apparent KD of MS2 coat protein (MS2 coat protein [3]; input ligand: FMN 200 uM): 90.9 nM
- apparent KD of MS2 coat protein (MS2 coat protein [3]; [4]): 46.8 nM
- apparent KD of MS2 coat protein (MS2 coat protein [3]; input ligand: none): 70.8 nM

Sequence: UUGAAUAAUUAAGGAUAUCGAGUCAAGAUGUUAAACAUGAGGAUCACCCAUGUGGGUUGCGGUAUCGAGAAGGUAAAUAAGAAG [Mat - Same State NG 2 - JL mod - D55] (Eterna round: R96, puzzle: Same State NG 2)
- apparent KD of MS2 coat protein (MS2 coat protein [3]; input ligand: FMN 200 uM): 26.6 nM
- apparent KD of MS2 coat protein (MS2 coat protein [3]; [4]): 19.6 nM
- apparent KD of MS2 coat protein (MS2 coat protein [3]; input ligand: none): 42.5 nM

Sequence: UUGAUUAGAAGUUAACAUGAGGAUCACCCAUGUAUUGGAUCAGAGGAUAUGCAUGUUUGAUAGUAGCAGAAGGCUGAUGGUGGA [JR_SSNG3_Sub026] (Eterna round: R96, puzzle: Same State NG 3)
- apparent KD of MS2 coat protein (MS2 coat protein [3]; [4]): 39.8 nM

Sequence: UUGCGCUGUCGAGAGGAUAUGCGGUGUUGGACAUGAGGAUCACCCAUGUUUGCGAUAGCUUUACGGUAGAAGGCUCUUCAGCUGC [salish99_ss2_r3_099] (puzzle: Same State 2)
- apparent KD of MS2 coat protein (MS2 coat protein [3]; [5]): 45.8 nM

Sequence: UUGCGGGCUUGAGGAUAUUGAGUACAUAUGUUUAACAUGAGGAUCACCCAUGUGGGUUGCGGUAUCGAGAAGGUGGCUUCCUGC [salish99_SSNG2_r04_813] (Eterna round: R96, puzzle: Same State NG 2)
- apparent KD of MS2 coat protein (MS2 coat protein [3]; input ligand: FMN 200 uM): 81.9 nM
- apparent KD of MS2 coat protein (MS2 coat protein [3]; [4]): 82.7 nM
- apparent KD of MS2 coat protein (MS2 coat protein [3]; input ligand: none): 74.8 nM

Sequence: UUGCUCGUGUGAGGAUAUGCCGCCGUUUCGGCUGCAGAAGGUACUCUUAUACAUGAGGAUCACCCAUGUCUCUGUUGUUUCGUG [salish99_SSNG1_r04_936] (Eterna round: R96, puzzle: Same State NG 1)
- apparent KD of MS2 coat protein (MS2 coat protein [3]; input ligand: FMN 200 uM): 97.9 nM
- apparent KD of MS2 coat protein (MS2 coat protein [3]; [4]): 65.3 nM
- apparent KD of MS2 coat protein (MS2 coat protein [3]; input ligand: none): 98.2 nM

Sequence: UUGCUCGUGUGAGGAUAUGCCGCCGUUUCGGCUGCAGAAGGUACUCUUGUACAUGAGGAUCACCCAUGUCUCUGUUGUUUCGUG [salish99_SSNG1_r04_938] (Eterna round: R96, puzzle: Same State NG 1)
- apparent KD of MS2 coat protein (MS2 coat protein [3]; [4]): 43.6 nM

Sequence: UUUAGUUGCGGGCAGGAUAUGUAUUAAAAUACAUGAGGAUCACCCAUGUGAGAUCGAAAAGAUCUACAGAAGGGCCAAUCGCGAC [Laonerce - 24] (puzzle: Same State 2)
- apparent KD of MS2 coat protein (MS2 coat protein [3]; Eterna round: R95, input ligand: FMN 200 uM): 14 nM
- apparent KD of MS2 coat protein (MS2 coat protein [3]; [5]): 58.3 nM
- apparent KD of MS2 coat protein (MS2 coat protein [3]; Eterna round: R95, input ligand: none): 85.8 nM

Sequence: UUUGGGUGGCUGGAGGAUAUUCUAGUGGUUACAUGAGGAUCACCCAUGUGUCGCGCGGUUCGCGAGGAGAAGGCUGGCGGCCGUU (puzzle: Same State 2)
- apparent KD of MS2 coat protein (MS2 coat protein [3]; [5]): 93.3 nM

Sequence: UUUUCGAACCGAGGAUAUCCUUAUAAGAAACAUGAGGAUCACCCAUGUAAAGGGAAUUAUUUGAAGGAGAAGGCGGAUUUUGUU [JR_SSNG2_Sub053] (Eterna round: R96, puzzle: Same State NG 2)
- apparent KD of MS2 coat protein (MS2 coat protein [3]; [4]): 33.5 nM

— the supplement of paper PMC9170038
